Results published in the supplement of paper PMC11865577.

Tests used:
Assay in all cases: pull-down binding Z-score (relative to library population); higher = stronger binding
Details in all cases: RNA library: Library-2
[1] = test system: TO-3-N3-2 (biotin conjugate)
Method in brief: (§1)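 Streptavidin beads bearing 100 pmol of a biotin-conjugated small molecule were incubated for 60 min at 25 °C with 1 μg of heat-folded, Cy5- or Cy3-end-labelled RNA library in phosphate/NaCl/KCl buffer. Hot SDS eluted the RNA that stayed bound after three washes, and this RNA was hybridised for 20 h at 55.5 °C to a DNA barcode microarray. Binding was expressed as a Z-score against the library mean and standard deviation, after subtraction of a beads-only signal and trimmed averaging of barcoded replicate probes.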

[2] = test system: TO-N3-2 (biotin conjugate)
Method in brief: as §1

[3] = test system: TO-3-N3 (biotin conjugate)
Method in brief: as §1

TO-N3 (biotin conjugate) = test system: TO-N3 (biotin conjugate)
Method in brief: as §1

Row | Sequence | pull-down binding Z-score [1] | pull-down binding Z-score [2] | pull-down binding Z-score [3] | pull-down binding Z-score (TO-N3 (biotin conjugate))
1 | UAGCUUGUUUUGUGCUUGCUG [SHAPE_invivo_SARS-CoV-2_Motif_507] | -0.546 | -0.699 | 0.134 | -0.0778
2 | UAGGCACGGCACUUGUGAAAGAUCAGAAGCUGGUGUUUG | -0.246 | 0.362 | -0.0752 | 0.0405
3 | UAGGUGUUUUAAUGUCUAAUUUAGGCAUGCCUUCUUACUGUACUGGUUACAGAGAAGGCUAUUUGAACUCUA | -0.358 | -0.982 | -0.861 | -0.806
4 | UAGGUGUUUUAAUGUCUAAUUUAGGCAUGCCUUCUUACUGUACUGGUUACAGAGAAGGCUAUUUGAACUCUACUAAUGUCACUAUUGCAACCUA | 0.0583 | -0.12 | -0.221 | -0.0965
5 | UAGGUUUUUCUACAGGUGUUAACCUA [SHAPE_invitro_SARS-CoV-2_Motif_336] | -0.426 | -0.856 | -0.603 | -0.981
6 | UAGUACAACAGGAGUCACCUUUUGUUAUGAUGUCAGCACCACCUGCUCAGUAUGAACUUAAGCAUGGUACAUUUACUUGUGCUA | -0.518 | -0.0314 | -0.521 | -0.168
7 | UAGUACAUUUAUUAGUGAUGAAGUUGCGAGAGACUUGUCACUACAGUUUAAAAGACCAAUAAAUCCUACUG [SHAPE_invivo_SARS-CoV-2_Multi_21_ComplexLevel_1] | 0.312 | 0.172 | 0.561 | 0.716
8 | UAGUAGCUGGUGGUAUUGUAGCUAUCGUAGUAACAUGCCUUGCCUACUA [DMSMaPseq_invitro_SARS-CoV-2_Motif_172] | -0.39 | -1.01 | -0.611 | -0.871
9 | UAGUCCUGUUGCACUACGACAGAUGUCUUGUGCUGCCGGUACUA [DMSMaPseq_invitro_SARS-CoV-2_Motif_226] | -0.381 | -0.478 | -0.727 | -0.821
10 | UAGUGAUGAAGUUGCGAGAGACUUGUCACUA | -0.441 | -0.661 | -0.736 | -0.688
11 | UAGUGCAAAGAAUAGAGCUCGCACCGUAGCUGGUGUCUCUAUCUGUAGUACUA | 0.188 | 0.18 | -0.167 | -0.0718
12 | UAGUGCUAUGCAGACAAUGCUUUUCACUA | -0.341 | -0.838 | -0.863 | -1.14
13 | UAGUGUUACCACAGAAAUUCUACCAGUGUCUAUGACCAAGACAUCAGUAGAUUGUACAAUGUACAUUUGUGGUGAUUCAACUG [DMSMaPseq_invitro_SARS-CoV-2_Multi_72_ComplexLevel_1] | 0.267 | -0.417 | 0.214 | 0.228
14 | UAGUUACACGGUGUUUAAACCGUGUUUGUACUA [SHAPE_invivo_SARS-CoV-2_Motif_139] | -0.496 | -1.11 | -0.83 | -1.15
15 | UAGUUUUAAGGAAUUA | -0.519 | -1.56 | -0.826 | -1.1
16 | UAUAAAGUUUAUUAUGGUAAUGCUUUAGAUCAAGCCAUUUCCAUGUGGGCUCUUAUA | -0.133 | -0.695 | -0.704 | -0.806
17 | UAUAACAAUACUAGAUGGAAUUUCACAGUAUUCACUGAGACUCAUUGAUGCUAUGAUGUUCACAUCUGAUUUGGCUACUAACAAUCUAGUUGUA | -0.178 | -1.1 | -0.682 | -0.688
18 | UAUAAUAUGAGAGUUAUA | -0.355 | -0.882 | -0.11 | -0.233
19 | UAUAUGCCUUAUUUCUUUACUUUAUUGCUACAAUUGUGUACUUUUACUAGAAGUACAAAUUCUAGAAUUAAAGCAUCUA [DMSMaPseq_invitro_SARS-CoV-2_Motif_128] | 0.0402 | -0.67 | -0.237 | -0.348
20 | UAUCCAAACGCAAGCUUCGAUAAUUUUAAGUUUGUAUGUGAUA [DMSMaPseq_invitro_SARS-CoV-2_Motif_115] | 0.145 | -0.609 | 0.127 | -0.225
21 | UAUGAGGUUUAGAAGAGCUUUUGGUGAAUACAGUCAUGUAGUUGCCUUUAAUACUUUACUAUUCCUUAUG | -0.231 | -0.84 | -0.502 | -0.62
22 | UAUGUCUGAAGCAAAAUGUUGGACUGAGACUGACCUUACUAAAGGACCUCAUGAAUUUUGCUCUCAACAUA | -0.402 | -0.671 | 0.0274 | 0.246

Row | Sequence | pull-down binding Z-score [1] | pull-down binding Z-score [2] | pull-down binding Z-score [3] | pull-down binding Z-score (TO-N3 (biotin conjugate))
23 | UAUUACAGAUCUUUACCAGGAGUUUUCUGUGGUG | -0.388 | -0.779 | -0.624 | -0.72
24 | UAUUAUUGCUAUGUCUGCUUUUGCAAUGAUG | -0.373 | -1.18 | -1.09 | -1.29
25 | UAUUGAAAUCAAUA | -0.77 | -1.72 | -0.553 | -0.987
26 | UAUUUCAUAACAGAUGCGCAAACAGGUUCAUCUAAGUGUGUGUGUUCUGUUAUUGAUUUA | -0.188 | -0.209 | -1.06 | -1.16
27 | UAUUUGCCUAUAGAUA | -0.192 | -0.821 | 0.0252 | -0.128
28 | UCAAAAAGAAAUUGA [SHAPE_invivo_SARS-CoV-2_Motif_472] | 0.153 | -0.626 | -0.145 | -0.459
29 | UCAAGACUAUUCAACCAAGGGUUGAAAAGAAAAAGCUUGA [SHAPE_invivo_SARS-CoV-2_Motif_22] | -0.14 | -0.823 | -0.217 | -0.551
30 | UCAAUUAUUAUAAGAAAGUUGA | -0.0592 | -0.425 | 0.154 | 0.0296
31 | UCACACUAAAAAGUGGA | -0.477 | -1.15 | -0.691 | -1.1
32 | UCACACUCAAAGGCGGUGCACCAACAAAGGUUACUUUUGGUGAUGACACUGUGAUAGAAGUGCAAGGUUACAAGAGUGUGAAUAUCACUUUUGAACUUGAUGA [DMSMaPseq_invitro_SARS-CoV-2_Multi_10_ComplexLevel_1] | -0.184 | 0.257 | 0.0984 | 0.304
33 | UCACAGAAUGCUGUAGCCUCAAAGAUUUUGGGACUACCAACUCAAACUGUUGA | -0.271 | -0.508 | -0.508 | -0.673
34 | UCACUCACUGAGUGA [IAV_invivo_NP_5_Motif_1+IAV_invivo_NP_5_Motif_1] | -0.357 | -1.45 | -0.0667 | -0.616
35 | UCAGCUGGUUUUCCAUUUAAUAAAUGGGGUAAGGCUAGA | -0.448 | -0.851 | -0.104 | -0.355
36 | UCAGUUGUAAACAUUCAAAAAGAAAUUGA | 0.407 | 0.216 | 0.0975 | 0.0554
37 | UCAUAACAGAUGCGCAAACAGGUUCAUCUAAGUGUGUGUGUUCUGUUAUUGA [SHAPE_invivo_SARS-CoV-2_Motif_383] | -0.455 | 1.78 | -0.657 | -0.196
38 | UCAUACUGAAAGCGAACUUCAGUGUGA [IAV_invivo_NS1_NEP_8_Motif_9+IAV_invivo_NS1_NEP_8_Motif_9] | -0.294 | -1.16 | -0.0847 | -0.352
39 | UCAUCAGGAGAUGCCACAACUGCUUAUGCUAAUAGUGUUUUUAACAUUUGUCAAGCUGUCACGGCCAAUGUUAAUGCACUUUUAUCUACUGAUGG [DMSMaPseq_invitro_SARS-CoV-2_Multi_45_ComplexLevel_1] | -0.46 | -0.306 | -0.641 | -0.561
40 | UCAUUAAUUGA | -0.664 | -1.65 | -0.712 | -1.27
41 | UCCAAACGCAAGCUUCGAUAAUUUUAAGUUUGUAUGUGA [SHAPE_invivo_SARS-CoV-2_Motif_125] | -0.0327 | -0.684 | -0.388 | -0.589
42 | UCCAAGAACUUGGA | -0.88 | -1.73 | -0.941 | -1.35
43 | UCCACACGCAAGUUGUGGA | -0.579 | -1.4 | -0.719 | -1.18
44 | UCCACUAGCAUCUUUAUUGGAGAUGUGCCACAGCACACAGAUUGGUGGAAUUAGGAUGGUAGACAUCCUUAGGCAGAACCCAACAGAAGAGCAAGCCGUGGA | -0.269 | 0.0456 | -0.764 | -0.545

Row | Sequence | pull-down binding Z-score [1] | pull-down binding Z-score [2] | pull-down binding Z-score [3] | pull-down binding Z-score (TO-N3 (biotin conjugate))
45 | UCCAUUUUUGGGUGUUUAUUACCACAAAAACAACAAAAGUUGGA [SHAPE_invitro_SARS-CoV-2_Motif_398] | 0.136 | -0.616 | -1.12 | -1.29
46 | UCCCAGUUUUGGGG [IAV_invivo_PB1_2_Motif_27+IAV_invivo_PB1_2_Motif_27] | -0.902 | -1.6 | -0.953 | -1.36
47 | UCCCAUGAGGGG [IAV_invivo_HA_4_Motif_6+IAV_invivo_HA_4_Motif_6] | -0.725 | -1.39 | -0.753 | -1.28
48 | UCCGAUUUACAGGA [DMSMaPseq_invitro_SARS-CoV-2_Motif_227] | -0.0117 | -0.256 | -0.342 | -0.272
49 | UCCGUAAGUAGGAUACUUACCUG [U1snRNP5ss-21] | -0.419 | -0.337 | -0.611 | -0.61
50 | UCCUAAAGAGGA | -0.431 | -0.731 | 1.2 | 0.703
51 | UCCUAAAGUGAAGUAUUUAUACUUUAUUAAAGGA [SHAPE_invitro_SARS-CoV-2_Motif_235] | -0.48 | -1.61 | -1.14 | -1.44
52 | UCCUAUUACGGA [SHAPE_invivo_SARS-CoV-2_Motif_121] | -0.643 | -1.27 | -0.479 | -0.905
53 | UCCUAUUUCUGAACAUGACUACCAGAUUGGUGGUUAUACUGAAAAAUGGGA | -0.375 | -0.953 | 0.1 | 0.012
54 | UCCUCAGUUUUACAUUCAACUCAGGA | -0.225 | -0.699 | -0.555 | -0.757
55 | UCCUCCCAGUGGCUGGUGGA [IAV_invivo_PB2_1_Motif_9+IAV_invivo_PB2_1_Motif_9] | -0.322 | -0.225 | -0.0747 | -0.228
56 | UCCUGUGGUAAUUUUAAAGUUACAAAAGGA | -0.424 | -0.669 | -0.823 | -0.795
57 | UCCUGUUUACCUUUUACAAUUAAUUGCCAGGA [SHAPE_invivo_SARS-CoV-2_Motif_533] | -0.351 | 0.272 | -0.84 | -1.01
58 | UCCUUACAUGGA | -0.672 | -1.16 | -0.557 | -0.321
59 | UCCUUUGACAUGAGUAAUGAAGGAUCUUAUUUCUUCGGAGACAAUGCAGAGGA [IAV_invivo_NP_5_Motif_26+IAV_invivo_NP_5_Motif_26] | -0.286 | -0.0358 | -0.638 | -0.711
60 | UCGCUUGCAAGUUGGAUUCAGAAUGAGUUUAACAAGGCAUGCGA [IAV_invivo_PA_3_Motif_18+IAV_invivo_PA_3_Motif_18] | -0.227 | -0.838 | -0.53 | -0.603
61 | UCGUCAAUAGGGCGA [IAV_invivo_PB2_1_Motif_18+IAV_invivo_PB2_1_Motif_18] | -0.184 | -0.56 | -0.228 | -0.554
62 | UCGUGUUAAAAAUCUGAAUUCUUCUAGAGUUCCUGAUCUUCUGGUCUAAACGAACUAAAUAUUAUAUUAGUUUUUCUGUUUGGAACUUUAAUUUUAGCCAUGG | -0.138 | -0.59 | -0.635 | -0.609
63 | UCUAAAUGAAACUCUUGUUACAAUGCCACUUGGCUAUGUAACACAUGGCUUAAAUUUGGA | -0.364 | -1.03 | -1.01 | -1.16
64 | UCUAACUUUAGAGUCCAACCAACAGAAUCUAUUGUUAGA | -0.138 | -0.918 | 0.171 | -0.148
65 | UCUAUACAGAACUGGA [SHAPE_invivo_SARS-CoV-2_Motif_242] | -0.0262 | -0.496 | 1.18 | 0.79
66 | UCUAUUAAAAUAUAAUGA [DMSMaPseq_invitro_SARS-CoV-2_Motif_395] | -0.157 | -0.693 | -0.0176 | -0.185
